Blank lines part the entries; values can stand above or below the binder they belong to.
Assays:
Tie2 receptor on HUVEC [1] = target: T1, Tie2 receptor on HUVEC (human, UniProt Q02763 23-1124); test: summary sentence of Example 3 (co-IP and HUVEC activation)
T1 construct: whole, on cells; also called TEK; Tie2 receptor tyrosine kinase

Tie2 receptor on HUVEC [2] = target: T1, Tie2 receptor on HUVEC; test: cell-based or functional assay

T1 sequence (Q02763 23-1124): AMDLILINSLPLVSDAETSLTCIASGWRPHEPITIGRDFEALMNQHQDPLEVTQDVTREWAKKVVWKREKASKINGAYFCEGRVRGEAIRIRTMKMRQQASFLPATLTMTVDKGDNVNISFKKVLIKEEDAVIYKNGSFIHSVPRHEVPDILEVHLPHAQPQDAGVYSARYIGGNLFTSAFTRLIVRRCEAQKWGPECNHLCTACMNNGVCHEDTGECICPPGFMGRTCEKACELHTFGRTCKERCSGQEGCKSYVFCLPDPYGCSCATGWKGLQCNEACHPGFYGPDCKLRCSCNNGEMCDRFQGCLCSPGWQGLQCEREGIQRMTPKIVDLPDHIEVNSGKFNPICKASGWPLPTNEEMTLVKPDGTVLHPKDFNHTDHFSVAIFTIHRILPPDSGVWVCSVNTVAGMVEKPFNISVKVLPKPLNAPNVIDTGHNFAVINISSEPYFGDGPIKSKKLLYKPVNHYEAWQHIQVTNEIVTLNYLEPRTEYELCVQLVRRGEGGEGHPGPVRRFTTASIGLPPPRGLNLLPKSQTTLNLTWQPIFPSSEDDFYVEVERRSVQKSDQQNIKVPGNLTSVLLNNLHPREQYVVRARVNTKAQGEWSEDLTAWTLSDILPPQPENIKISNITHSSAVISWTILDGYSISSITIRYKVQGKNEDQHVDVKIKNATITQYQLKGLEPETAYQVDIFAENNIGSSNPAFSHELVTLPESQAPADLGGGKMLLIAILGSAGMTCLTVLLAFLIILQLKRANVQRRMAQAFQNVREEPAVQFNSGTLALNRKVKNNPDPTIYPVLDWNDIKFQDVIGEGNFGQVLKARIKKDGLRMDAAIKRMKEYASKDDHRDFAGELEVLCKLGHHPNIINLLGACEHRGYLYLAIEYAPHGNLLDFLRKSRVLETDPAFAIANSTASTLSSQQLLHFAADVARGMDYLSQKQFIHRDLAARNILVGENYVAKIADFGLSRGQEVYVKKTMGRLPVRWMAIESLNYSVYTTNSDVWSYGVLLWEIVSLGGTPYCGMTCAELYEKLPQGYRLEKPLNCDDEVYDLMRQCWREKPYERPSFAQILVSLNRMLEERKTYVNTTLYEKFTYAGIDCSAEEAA

- binding result (Tie2 receptor on HUVEC [1]): binds
B1: C4BP-ANG1 (designed binder, not shown: small tags and cut ends)
chain: ETPEGCEQVLTGKRLMQCLPNPEDVKMALEVYKLSLEIEQLELQRDSARQSTLDKELGGGGSKPFRDCADVYQAGFNKSGIYTIYINNMPEPKKVFCNMDVNGGGWTVIQHREDGSLDFQRGWKEYKMGFGNPSGEYWLGNEFIFAITSQRQYMLRIELMDWEGNRAYSQYDRFHIGNEKQNYRLYLKGHTGTAGKQSSLILHGADFSTKDADNDNCMCKCALMLTGGWWFDACGPSNLNGMFYTAGQNHGKLNGIKWHYFKGPSYSLRSTTMMIRPLDF
notes: Heptamer through disulfide-bridged C4BP segment; also called C4BP-ANG1 chimeric fusion protein

- phosphorylation level of AKT (pAKT) in HUVEC treated for 20 minutes, EC50 (Tie2 receptor on HUVEC [2]): 87 ng/mL
B2: ANG1-C4BP (designed binder, not shown: small tags and cut ends)
chain: KPFRDCADVYQAGFNKSGIYTIYINNMPEPKKVFCNMDVNGGGWTVIQHREDGSLDFQRGWKEYKMGFGNPSGEYWLGNEFIFAITSQRQYMLRIELMDWEGNRAYSQYDRFHIGNEKQNYRLYLKGHTGTAGKQSSLILHGADFSTKDADNDNCMCKCALMLTGGWWFDACGPSNLNGMFYTAGQNHGKLNGIKWHYFKGPSYSLRSTTMMIRPLDFGGGGSETPEGCEQVLTGKRLMQCLPNPEDVKMALEVYKLSLEIEQLELQRDSARQSTLDKEL

Reference: patent US20230091105A1 (NORTHWESTERN UNIVERSITY, published 2023)
